Tests used:
MMP-16 [1] = molecular target: T1, MMP-16 (Homo sapiens, UniProt P51512); test: Cross-reactivity of Fabs and IgGs with MMP-16 (Example 8); format: biochemical; parameters: key to MMP-16 (cross-reactivity, class symbol): X: Does not inhibit MMP-16 at [I] = 100 nM level; details: 5 nM MMP16, 30 minutes at 30° C., 10 μM substrate
Method: For the studies summarized in Tables 13 and 14, 100 nM anti-MMP-14 Fab/IgG were incubated with 5 nM MMP16 for 30 minutes at 30° C., 10 μM of substrate was added, and the MMP-16 activity was measured.

MMP-16 [2] = molecular target: T1, MMP-16; test: Cross-reactivity of Fabs with MMP-16 (Example 9); format: biochemical; parameters: key: X: Do not inhibit MMP-16 or MMP-24 at [I] = 100 nM level; Y: partially inhibit at [I] = 100 nM level; details: Fab, 100 nM final inhibitor concentration, 5 nM MMP-16
Method: (§1) For the studies summarized in Table 15, 1 μM of anti-MMP-14 Fab/IgG (100 nM final inhibitor concentration) were incubated with 5 nM of MMP-16 or 5 nM of MMP-24 for 30 minutes at 30° C., 10 μM of substrate was added, and the MMP-16 activity was measured.

MMP-14 [3] = molecular target: T2, MMP-14 (Homo sapiens, UniProt P50281); test: IC50 for MMP-14 inhibition by Fabs and IgGs; format: biochemical; details: Fab
Method: MMP-14 binding proteins can be characterized in assays that measure their modulatory activity toward MMP-14 or fragments thereof in vitro or in vivo. For example, MMP-14 can be combined with a substrate such as Mca-Pro-Leu-Ala-Cys(Mob)-Trp-Ala-Arg-Dap(Dnp)-NH2 under assay conditions permitting cleavage by MMP-14. The assay is performed in the absence of the MMP-14 binding protein, and in the presence of increasing concentrations of the MMP-14 binding protein. The concentration of binding protein at which 50% of the MMP-14 activity (e.g., binding to the substrate) is inhibited is the IC50 value (Inhibitory Concentration 50%) or EC50 (Effective Concentration 50%) value for that binding protein.

MMP-24 = MMP-24 (Homo sapiens, UniProt Q9Y5R2); test: Cross-reactivity of Fabs with MMP-24 (Example 9); format: biochemical; parameters: key to MMP-24 (cross-reactivity, class symbol): X: Do not inhibit MMP-16 or MMP-24 at [I] = 100 nM level; Y: partially inhibit at [I] = 100 nM level; details: Fab, 100 nM final inhibitor concentration; 5 nM MMP-24
Method: as §1

MMP-14 [4] = molecular target: T2, MMP-14; test: Selection and phage ELISA screening of anti-MMP-14 Fabs; format: binding; details: Fab from FAB310 phage display library
Summary of the method: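 The FAB310 phage library was panned on biotinylated MMP-14, alone or complexed with bead-bound TIMP-2, at 500 nM and then 100 nM over three rounds. Phage was eluted with 2.5 μM TIMP-2, then 100 mM TEA. For ELISA, 95 clones per round were screened against 1 μg/ml biotinylated MMP-14 captured on streptavidin in TRIS/5 mM CaCl2, pH 7.5.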

[5] = tested on: Tumor Cells Expressing MMP-14 (HT-1080, LNCaP, MDA-MB-231, PC3); test: Binding of IgGs to tumor cells, immunocytochemistry and flow cytometry; format: cell-based, human; details: ICC versus flow cytometry
Method: The ability of twelve biotinylated-MMP-14 binding IgGs to bind to tumor cells expressing MMP-14 was evaluated using both immunocytochemistry (ICC) and flow cytometry. The cell lines tested were HT-1080 (a human fibrosarcoma cell line), LNCaP (human, prostate, carcinoma), MDA-MB-231 (human, breast, adenocarcinoma), or PC3 (Human prostatic cancer cells) cells. MMP-14 is expressed on HT-1080 cells (Cancer Res. (2005) 65(23):10959-69.). MMP-14 is expressed on PC-3 cells (Oncol Rep. (2006) 15(1):199-206). LNCaP express MMP-14 (Endocrinology (2003) 144(5):1656-1663) at a relatively low level. […] MMP-14 is expressed by MDA-MB-231 cells (Int J Cancer. (2005) 114(4):544-554.).
Cells (2×10^5) were cultivated on cell culture slides in complete medium. At confluency, cells were washed with PBS and fixed with 4% paraformaldehyde for 30 minutes at room temperature. Endogenous peroxidases were blocked with 3% hydrogen peroxide for 20 minutes. Nonspecific binding sites were blocked by incubation with 10% heat inactivated human serum 10% normal rabbit serum for 30 minutes at room temperature. Cells were then incubated with biotinylated or non-biotinylated MMP-14 binding proteins at 10 μg/ml for 2 hours at room temperature. […] Binding was detected with the substrate AEC+(25 minutes at room temperature in the dark). […]

T1 sequence (P51512 120-607): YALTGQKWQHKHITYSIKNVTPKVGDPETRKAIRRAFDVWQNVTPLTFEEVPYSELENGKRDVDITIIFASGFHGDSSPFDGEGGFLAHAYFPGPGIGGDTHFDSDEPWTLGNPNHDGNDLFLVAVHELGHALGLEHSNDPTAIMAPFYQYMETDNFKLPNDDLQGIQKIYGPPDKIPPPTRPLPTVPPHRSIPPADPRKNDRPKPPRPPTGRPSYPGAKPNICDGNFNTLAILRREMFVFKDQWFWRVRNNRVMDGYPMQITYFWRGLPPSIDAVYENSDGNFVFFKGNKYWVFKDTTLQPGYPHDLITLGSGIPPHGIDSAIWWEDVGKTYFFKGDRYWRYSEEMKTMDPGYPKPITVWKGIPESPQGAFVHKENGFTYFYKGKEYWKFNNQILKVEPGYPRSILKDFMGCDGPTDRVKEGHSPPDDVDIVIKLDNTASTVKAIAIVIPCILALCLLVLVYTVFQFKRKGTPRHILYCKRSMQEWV
Sequence of MMP-24 (Q9Y5R2 156-645): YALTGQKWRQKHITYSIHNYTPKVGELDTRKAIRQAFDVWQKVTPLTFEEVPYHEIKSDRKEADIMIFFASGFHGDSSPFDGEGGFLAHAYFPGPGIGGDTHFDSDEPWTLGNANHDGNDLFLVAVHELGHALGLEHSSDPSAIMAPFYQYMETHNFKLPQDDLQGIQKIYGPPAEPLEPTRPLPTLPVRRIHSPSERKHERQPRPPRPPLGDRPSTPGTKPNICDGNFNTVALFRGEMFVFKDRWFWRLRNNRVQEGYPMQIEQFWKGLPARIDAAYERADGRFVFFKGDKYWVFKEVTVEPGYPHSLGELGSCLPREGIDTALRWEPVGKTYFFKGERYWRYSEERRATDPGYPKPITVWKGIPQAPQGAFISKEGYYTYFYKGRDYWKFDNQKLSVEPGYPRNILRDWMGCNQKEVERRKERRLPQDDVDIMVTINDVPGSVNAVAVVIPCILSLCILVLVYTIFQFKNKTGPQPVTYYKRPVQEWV

B1: M0038-F08: human antibody (Fab, IgG) that binds and inhibits MMP-14; HC SEQ ID NO: 158, LC SEQ ID NO: 159 (antibody, V domains shown)
VH: EVQLLESGGGLVQPGGSLRLSCAASGFTFSRYKMWWVRQAPGKGLEWVSGIRPSGGLTRYADSVKGRFTISRDNSKNTLYLQMNSLRAEDTAVYYCARRGDYVGGFDYWGQGTLVTVSS
VL: QDIQMTQSPGTLSLSPGERATLSCRASQSVSSSYLAWYQQKPGQAPRLLIYGASSRATGIPDRFSGSGSGTDFTLTISRLEPEDFAVYYCQHYGGSQAFGGGTKVEIK
modifications: Synthetically generated peptide
MMP-16 [1]; Fab 100 nM
  MMP-16 (cross-reactivity, class symbol): X
MMP-16 [1]; IgG 100 nM
  MMP-16 (cross-reactivity, class symbol): X
MMP-16 [2]
  MMP-16 (cross-reactivity, class symbol): X
MMP-14 [3]
  bind to and inhibit human MMP-14: bind to and inhibit human MMP-14
MMP-24
  MMP-24 (cross-reactivity, class symbol): X
MMP-14 [4]
  bind to human MMP-14: bind to human MMP-14
[5]
  Staining, remark on method: (only positive in immunocytochemistry, ICC)

— US8106168B2, “Metalloproteinase binding proteins” (Dyax Corp., priority 2005, dated 2012)
